Values quoted from earlier work as cited in PMC4370575.

What was measured:
Mms2 (Homo sapiens) = Mms2 (Homo sapiens) (UniProt Q15819)
UbcH5c~Ub (Homo sapiens) = UbcH5c~Ub (Homo sapiens) (UniProt P61077)

Chain of UniProt Q15819 (Q15819 2-145): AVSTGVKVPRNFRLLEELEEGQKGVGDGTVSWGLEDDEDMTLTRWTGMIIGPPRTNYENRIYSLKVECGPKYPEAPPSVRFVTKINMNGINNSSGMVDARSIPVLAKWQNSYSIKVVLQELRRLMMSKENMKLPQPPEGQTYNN

| Kd (Mms2 (Homo sapiens)) | Kd (UbcH5c~Ub (Homo sapiens)) | Substance |
| --- | --- | --- |
| 2 µM |  | Ubc13 (from UniProt P61088) |
|  | 25 µM | UbcH5c~Ub (from UniProt P61077) |
